Paper PMC12134178

Biological target: mCerulean3-BaxΔCTS
Assay: FRET or BRET; quantitative fast FLIM-FRET (qF3) in live HCT116 DKO cells stably expressing the donor ^CBaxΔCTS (1 to 3 µM) and transiently the Venus acceptor (0 to 50 µM); 10 µM Q-VD-OPH; fit to a Hill equation with h = 1; apparent Kd

Venus-tBid(Nes2-BH3 C-ter) chimera (from UniProt P70444 1-81; P70444 101-195)
Kd: 17 µM

Venus-tBid (domain or fragment)
Kd: 16.3 µM
